Results on 25 sequences are retold here after the DeepSol protein solubility set.

This series in a line: soluble on expression in E. coli; label from the status in PepcDB or PDB records.
“GPLGSPEFMEGVLYKWTNYLTGWQPRWFVLDNGILSYYDSQDDVCKGSKGSIKMAVCEIKVHSADNTRMELIIPGEQHFYMKAVNAAERQRWLVALGSSKASLTDTRT”: the “soluble on expression in E. coli” value is reported as “soluble”. In the case of “GPMELAHREYQAGDFEAAERHCMQLWRQEPDNTGVLLLLSSIHFQCRRLDRSAHFSTLAIKQNPLLAEAYSNLGNVYKERGQLQEAIEHYRHALRLKPDFIDGYINLAAALVAAGDMEGAVQAYVSALQYNPDLYCVRSDLGNLLKALGRLEEAKACYLKAIETQPNFAVAWSNLGCVFNAQGEIWLAIHHFEKAVTLDPNFLDAYINLGNVLKEARIFDRAVAAYLRALSLSPNHAVVHGNLACVYYEQGLIDLAIDTYRRAIELQPHFPDAYCNLANALKEKGSVAEAEDCYNTALRLCPTHADSLNNLANIKREQGNIEEAVRLYRKALEVFPEFAAAHSNLASVLQQQGKLQEALMHYKEAIRISPTFADAYSNMGNTLKEMQD” it was “soluble”. In the case of “GQDQRRRRIVSRRIYKRIMLKPHYLSIPEAQLEAMNNIQLNPIMKLINNNSDSPVMLSSPPDIFTAGKDMFDCFFRDIEAARHHVHIQFYVIEDDHLGSRLSDLLIRKVQEGVKVRVIFDHVGSWATGRGYWKRLRRAGVEAYPFMPVFFPILSSRVNYRNHRKVAVIDGKIGYLGGMNVADRYYSGNRLGLWRDTHFRMMGNVVAGLQSSFLLDWYVVSRRVINLSGYYPDLPIPVSDEGVKIQLVRSGPVGQWRTIEQATIYCIERACEHVYIETPYFLPTEGLN”, the “soluble on expression in E. coli” value is recorded as “not soluble”. In the case of “GSESGLRYAYTLVVDGTANTARCFGTGHVDGEAFVGYSNNKTHGIGRWVNASHVEEENKEFVRQCKELQAELDKMQNNSAVIGVKTVQLDVGCTSKIEKHYAYDGNETEDDTATSASERARDCQKKLTEYRKLVLASAVSPQLEVERRSSGREGGMRLRCFARDYYPADLEIRWWKDDGGGGALPQTSKQHHDPLPSGQGLYQKHIDVYVDGGLEHVYSCRVKGIATGLELQIVRWKG” it was “soluble”; in that of “GSHMAGLPRRIIKETQRLLAEPVPGIKAEPDESNARYFHVVIAGPQDSPFEGGTFKLELFLPEEYPMAAPKVRFMTKIYHPNVDKLGRICLDILKDKWSPALQIRTVLLSIQALLSAPNPDDPLANDVAEQWKTNEAQAIETARAWTRLYAMNNI”, “soluble”. With “GSHMEAPILYEDPPEKLTSKDGRAANMKITSWNVDGLRAWVKKNGLDWVRKEDPDILCLQETKCAEKALPADITAMPEYPHKYWAGSEDKEGYSGVAMLCKTEPLNVTYGIGKEEHDKEGRVITAEFPDFFLVTAYVPNASRGLVRLDYRKTWDVDFRAYLCGLDARKPLVLCGDLNVAHQEIDLKNPKGNRKNAGFTPEEREGFTQLLEAGFTDSFRELYPDQAYAYTFWTYMMNARSKNVGWRLDYFVLSSALLPGLCDSKIRNTAMGSDHCPITLFLAV” the entry was “soluble”; with “GSHMNTLKKAFEILDFIVKNPGDVSVSEIAEKFNMSVSNAYKYMVVLEEKGFVLRKKDKRYVPGYKLIEYGSFVLRRFNIRDIAHDHLVDIMKRTGETVHLILKDGFEGVYIDKVEGEQSIPMVSRLGMKVDLYSTASGKSILAFVPEKELKEYLKIVELKPKTPNTITNPRVLKRELEKIRKRGYAVDNEENEIGIMCVGVPIFDHNGYPVAGVSISGVARKFTEEKIEEYSDVLKEKAEEISRKLGY”, “soluble”. For “GSHMQTPKETLSERLSALQDKIIDHYENDSKDIDSQIQYWQLIRWENAIFFAAREHGIQTLNHQVVPAYNISKSKAHKAIELQMALQGLAQSAYKTEDWTLQDTCEELWNTEPTHCFKKGGQTVQVYFDGNKDNCMTYVAWDSVYYMTDAGTWDKTATCVSHRGLYYVKEGYNTFYIEFKSECEKYGNTGTWEVHFGNNVIDCNDSMCSTSDDTVSAT”, the “soluble on expression in E. coli” value is reported as “soluble”. Regarding “GSHMSHDGKEEPGIAKKINSVDDIIIKCQCWVQKNDEERLAEILSINTRKAPPKFYVHYVNYNKRLDEWITTDRINLDKEVLYPKLKATDED”, the “soluble on expression in E. coli” value was “soluble”. In the case of “GSHMVTIVRIYLDGVYGIGKSTTGRVMASAASGGSPTLYFPEPMAYWRTLFETDVISGIYDTQNRKQQGNLAVDDAALITAHYQSRFTTPYLILHDHTCTLFGGNSLQRGTQPDLTLVFDRHPVASTVCFPAARYLLGDMSMCALMAMVATLPREPQGGNIVVTTLNVEEHIRRLRTRARIGEQIDITLIATLRNVYFMLVNTCHFLRSGRVWRDGWGELPTSCGAYKHRATQMDAFQERVSPELGDTLFALFKTQELLDDRGVILEVHAWALDALMLKLRNLNVFSADLSGTPRQCAAVVESLLPLMSSTLSDFDSASALERAARTFNAEMGV” it was “soluble”. For the sequence “GSMKPMGPNDYMVIGLARIDDRLIHGQVATRWTKETNVSRIIVVSDEVAADTVRKTLLTQVAPPGVTAHVVDVAKMIRVYNNPKYAGERVMLLFTNPTDVERLVEGGVKITSVNVGGMAFRQGKTQVNNAVSVDEKDIEAFKKLNARGIELEVRKVSTDPKLKMMDLISKIDK”, the “soluble on expression in E. coli” value is “soluble”. With “GSMSLNDFLSSVLPVSEQFEYLSLQSIPLETHAVVTPNKDDKRVPKSTIKTQHFFSLFHQGKVFFSLEVYVYVTLWDEADAERLIFVSKADTNGYCNTRVSVRDITKIILEFILSIDPNYYLQKVKPAIRSTCPREILTKICLFTRPASQYLFPDSSKNSKKHILNGEELMKWWGFILDRLLIECFQNDTQAKLRIPGEDPARVRSYLRGMKYPLWQVGDIFTSKENSLAVYNIPLFPDDPKARFIHQLAEEDRLLKVSLSSFWIELQERQEFKLSVTSSVMGISGYSLATPSLFPSSADVIVPKSRKQFRAIKKYITGEEYDTEEGAIEAFTNIRDFLLLRMATNLQSLTGKREHRERNQPVPASNINTLAITMLKPRKKAKALPKT” the entry was “soluble”. With “GSPALDTGTTEEDRLKIDVIDWLVFDPAQRAEALKQGNAIMRKFLASKKHEAAKEVFVKIPQDSIAEIYNQCEEQGMESPLPAEDDNAIREHLCIRAYLEAHETFNEWFKHMNSVPQKPALIPQPTFTEKVAHEHKEKKYEMDFGIWKGHLDALTADVKEKMYNVLLFVDGGWMVDVREDAKEDHERTHQMVLLRKLCLPMLCFLLHTILHSTGQYQECLQLADMVSSERHKLYLVFSKEELRKLLQKLRESSLMLLDQGLDPLGYEIQLSGRIVTD” the entry was “soluble”. In the case of “GSPEFKTIDASVSKKAADSTSQCGKATGSDSSGVIDLTMDDEESGASQD” it was “soluble”; in that of “GSPELGFSISGGVGGRGNPFRPDDDGIFVTRVQPEGPASKLLQPGDKIIQANGYSFINIEHGQAVSLLKTFQNTVELIIVREVGNGAKQEIRVRVEKDGGSGGVSSVPTNLEVVAATPTSLLISWDAYRELPVSYYRITYGETGGNSPVQEFTVPGSKSTATISGLKPGVDYTITVYAHYNYHYYSSPISINYRT”, “soluble”. As to “GSPGISGGGGGILMDVNVGLSRLQSQAGAPVGTKGSNTRLAAKQRETLQAYDYLCRVDEAKKWIEECLGTDLGPTSTFEQSLRNGVVLALLVQKFQPDKLIKIFYSNELQFRHSDNINKFLDFIHGIGLPEIFHFELTDIYEGKNLPKVIYCIHALSYFLSMQDLAPPLIKSDENLSFTDEDVSIIVRRLRQSNVILPNFKAL”, the “soluble on expression in E. coli” value is “soluble”. With “GSPGLKGDKGIPGDKGAKGESGLPDVASLRQQVEALQGQVQHLQAAFSQYKKVELFPNGQSVGEKIFKTAGFVKPFTEAQLLCTQAGGQLASPRSAAENAALQQLVVAKNEAAFLSMTDSKTEGKFTYPTGESLVYSNWAPGEPNDDGGSEDCVEIFTNGKWNDRACGEKRLVVCEF” the entry was “soluble”; with “GSRPGPASQLPRFVRVNTLKTCSDDVVDYFKRQGFSYQGRASSLDDLRALKGKHFLLDPLMPELLVFPAQTDLHEHPLYRAGHLILQDRASCLPAMLLDPPPGSHVIDACAAPGNKTSHLAALLKNQGKIFAFDLDAKRLASMATLLARAGVSCCELAEEDFLAVSPSDPRYHEVHYILLDPSCSGSGMPSRQLEEPGAGTPSPVRLHALAGFQQRALCHALTFPSLQRLVYSTCSLCQEENEDVVRDALQQNPGAFRLAPALPAWPHRGLSTFPGAEHCLRASPETTLSSGFFVAVIERVEVPRRARG”, “soluble”. “GSSHHHHHHSSGLVPRGSHMRIVFDIGGSVLVPENPDIDFIKEIAYQLTKVSEDHEVAVVVGGGKLARKYIEVAEKFNSSETFKDFIGIQITRANAMLLIAALREKAYPVVVEDFWEAWKAVQLKKIPVMGGTHPGHTTDAVAALLAEFLKADLLVVITNVDGVYTADPKKDPTAKKIKKMKPEELLEIVGKGIEKAGSSSVIDPLAAKIIARSGIKTIVIGKEDAKDLFRVIKGDHNGTTIEP”: the “soluble on expression in E. coli” value is listed as “soluble”. In the case of “GSTPITGPHIAYTEAVSDTQIMLKWTYIPSSNNNTPIQGFYIYYRPTDSDNDSDYKRDVVEGSKQWHMIGHLQPETSYDIKMQCFNEGGESEFSNVMICETK” it was “soluble”; in that of “GSVSPTFQVVNSFAPVQECSTQLDIVIVLDGSNSIYPWESVIAFLNDLLKRMDIGPKQTQVGIVQYGENVTHEFNLNKYSSTEEVLVAANKIVQRGGRQTMTALGIDTARKEAFTEARGARRGVKKVMVIVTDGESHDNYRLKQVIQDCEDENIQRFSIAILGHYNRGNLSTEKFVEEIKSIASEPTEKHFFNVSDELALVTIVKALGERIFALEALERPHRD”, “soluble”. “GTEDTFWKDETDFNLALTSCYTPLKNALNGGYYGTRGVMLRIARADEVDFRNDISDVYTVNRFTNSNTNSLTQGMFYQFYNALYRTNSIMQKLEEKKEQFSTDFQNSVKGECLFIRGFYLFQLAKEFKDAPLRLTASQSPSTFPLAKSSQADIWAQAKEDLKTAASLLPITNKIGKPTQGAAYAALGKIYVYEENWQEAINVLEPLTQNPYTYKLVEDFNWNFDDTHENNAESIFELLIEDVGGTDLWGDGENINSTQSNTRPKEYAAAEVGGWYEANPTQQIMDIFWKEKDKDGNFDYRARCSVAWDYEGCTYYQRPFREVFAQDKWKTYWILKYQNWKTQKDEPAPPKSFINERAIRYADVLLMLAEAYMNKGALDTSIGYINQIRRRANLNDYSGPITKEGVFEDLVHQRAIEFFVEGERFYDLRRWGLLEQTLKTCDDTRYKNYQTGKSDNINKFNYFPIPAKELDTNPLCTPSEGW”: the “soluble on expression in E. coli” value is listed as “soluble”. For the sequence “GTENLYFQGMSDVIEGRLKELGFTLPVAAAPAANYVPFTISGNLLYVSGQLPMESGKIAVTGLVGRDVDVASAQRAAELCAVNILAQVKAALNGDLSKIRRVIKLNGFVASVPEFVEQHLVINGASNLIATVLGEPGRHARAAVGMASLPFNASVEIDAIVEIDV”, the “soluble on expression in E. coli” value is “soluble”. With “GTGRSRLLEDFRNNRFPNLQLRDLIGHIVEFSQDQHGSRFIQQKLERATPAERQIVFNEILQAAYQLMTDVFGNYVIQKFFEFGSLDQKLALATRIRGHVLPLALQMYGCRVIQKALESISSDQQSEMVKELDGHVLKCVKDQNGNHVVQKCIECVQPQSLQFIIDAFKGQVFVLSTHPYGCRVIQRILEHCTAEQTLPILEELHQHTEQLVQDQYGNYVIQHVLEHGRPEDKSKIVSEIRGKVLALSQHKFASNVVEKCVTHASRAERALLIDEVCCQNDGPHSALYTMMKDQYANYVVQKMIDMAEPAQRKIIMHKIRPHITTLRKYTYGKHILAKLEKYYLKNSPDLG” the entry was “soluble”; with “GTVEGVVGVTREVTEQRKHEMEIARQRSILKAQQEAVIDGILVVDEDDTIVSYNERFVDMWDIPRDIVERGDEEIALEWAMEQVAEPEAFRVDVEALYEDPETTARDELELADGRVFDRYTAPVVAEDGTRFGRLWAFRD”, “not soluble”.
